Experimental data taken from patent US20100260765A1 (AstraZeneca / MedImmune, published 2010).

B1: anti-KDR monoclonal antibody 29H3 (antibody, V domains shown)
VH: QVQLVQSGAEVKKPGASVKVSCKASGYTFTSYDINWVRQATGQGLEWMGWMNPNSGKTGYAQKFQGRVTMTRNTSINTAYMELSSLRSEDTAVYYCARGGYSNLGWFDPWGQGTLVTVSS
VL: DIQMTQSPSSVSASVGDRVTITCRASQGISSWLVWYHQKPGKAPKLLIYGASSLQSGVPSRFSGSGSGTDFTLTISSLQPEDFATYYCQQANNFPFTFGPGTKVDIK
notes: Fully human mAb from XenoMouse (IgG2 or IgG4 strain); hybridoma supernatant
B2: anti-KDR monoclonal antibody 33C3 (antibody, V domains shown)
VH: QVQLVESGGGLVKPGESLRLSCAASGFTFSDYYMSWIRQAPGKGLEWVSYISHGGSTIYYADSVKGRFTISRDNAKNSLYLQMNSLRVEDTAVYFCARDDFWSGYYFNWFDPWGQGALVTVSS
VL: DIQMTQYPLSLSASVGDRVTITCRASQSISSFLNWYHQKPGKAPKLLIYGTSSLQSGVPSRFSGSGSGTDFTLTISSLQPEDFATYYCQQTYSIPLTFGGGTNVEIK
notes: as for B1
B3: anti-KDR monoclonal antibody 33E1 (antibody, V domains shown)
VH: QVQLQESGPGLVKPSQTLSLTCTVSGGSISSGDHYWSWIRQHPGKGLEWIGHIYYSGSTDYNPSLKSRVTISVDTSKNHFSLKLNSVTAADTAVYYCARTNSSSWSDWYFDLWGRGTLVTVSS
VL: DIVMTQSPDSLAVSLGERATINCKSSQSILYSSNNKNYLAWYQRKPGQPPILLIHWASTRESGVPDRFSGSGSRTDFTLTISSLQAEDVAVYYCQQYFITPWTFGQGTKVEIK
notes: as for B1
B4: anti-KDR monoclonal antibody 22B8 (antibody, V domains shown)
VH: QLQLQESGPGLVKPSETLSLTCTVSGGSISSRYYYWGWVRQPPGKGLEWIGTIYYSGHTYYNPSLKTRVTISVDTSKNQFSLKLISVTAADTAVYYCATQQLVLYYFDFWGQGTLVTVSS
VL: EIVLTQSPGTLSLSPGERAALSCRASQSISSSYLAWYQQRPGQAPRLLIYGASSRATGIPDRFNGSGSGTDFTLTISRLEPEDFAVYYCQQFGSSITFGQGTRLEIK
notes: as for B1
B5: anti-KDR monoclonal antibody 30A1 (antibody, V domains shown)
VH: QLQLQESGPGLVKPSETLSLTCTVSGGSISSPNYYWGWIRQPPGKGLEWIGTIYYSGNTFYNPSLKSRVTISVDTSKNQFSLKLSSVTAADTAVYYCATQQLVLYYFDFWGQGTLVTVSS
VL: EIVLTQSPGTLSLSPGKRAALSCRASQSISSSYLAWYQQKPGQAPRLLIYGASSRATGIPDRFNGSGSGTDFTLTISRLEPEDFAVYYCQQLGSSITFGQGTRLEIK
notes: as for B1
B6: anti-KDR monoclonal antibody 32G7 (antibody, V domains shown)
VH: EVQLVESGGGLVKPGGSLRLSCAASGFTISSYSMNWVRQAPGKGLEWVSFISSRSNYIYYADSVKGRFTISRDNAKNSLYLQMNSLRAEDTAVYYCSKDDWFEELWGQGTLVTVSS
VL: DIQMTQSPSSLSASVGDRVTITCRASQDIRNDLGWYQQKPGKAPKRLIYAASSLQSGVPSRFSGSGSGTEFTLTISSLQPEDFATYYCLQHNSFPWTFGQGTKVEIK
notes: as for B1
B7: anti-KDR monoclonal antibody 33B1 (antibody, V domains shown)
VH: EVQLVESGGGLVKPGGSLRLSCAASGFTFSSYTMNWVRQAPGKGLEWVSFIDSRSSYIYYADSVKGRFTISRDNAKNSLYLQMNSLRAEDTAVYYCSKDDWFEELWGQGTLVTVSS
VL: DIQMTQSPSSLSASVGDRVTITCRASQGIRNDLGWYQQKPGKAPKRLIYATSSLQSGVPSRFSGSGSGTEFTLTISSLQPEDFATYYCLHHNSFPWTFGQGTKVEIK
notes: as for B1

Columns and labels:
[1] = molecular target: T1, human KDR (VEGFR2) on cells (human, UniProt P35968 20-1356); experiment: cell-based or functional assay
T1 sequence (P35968 20-1356): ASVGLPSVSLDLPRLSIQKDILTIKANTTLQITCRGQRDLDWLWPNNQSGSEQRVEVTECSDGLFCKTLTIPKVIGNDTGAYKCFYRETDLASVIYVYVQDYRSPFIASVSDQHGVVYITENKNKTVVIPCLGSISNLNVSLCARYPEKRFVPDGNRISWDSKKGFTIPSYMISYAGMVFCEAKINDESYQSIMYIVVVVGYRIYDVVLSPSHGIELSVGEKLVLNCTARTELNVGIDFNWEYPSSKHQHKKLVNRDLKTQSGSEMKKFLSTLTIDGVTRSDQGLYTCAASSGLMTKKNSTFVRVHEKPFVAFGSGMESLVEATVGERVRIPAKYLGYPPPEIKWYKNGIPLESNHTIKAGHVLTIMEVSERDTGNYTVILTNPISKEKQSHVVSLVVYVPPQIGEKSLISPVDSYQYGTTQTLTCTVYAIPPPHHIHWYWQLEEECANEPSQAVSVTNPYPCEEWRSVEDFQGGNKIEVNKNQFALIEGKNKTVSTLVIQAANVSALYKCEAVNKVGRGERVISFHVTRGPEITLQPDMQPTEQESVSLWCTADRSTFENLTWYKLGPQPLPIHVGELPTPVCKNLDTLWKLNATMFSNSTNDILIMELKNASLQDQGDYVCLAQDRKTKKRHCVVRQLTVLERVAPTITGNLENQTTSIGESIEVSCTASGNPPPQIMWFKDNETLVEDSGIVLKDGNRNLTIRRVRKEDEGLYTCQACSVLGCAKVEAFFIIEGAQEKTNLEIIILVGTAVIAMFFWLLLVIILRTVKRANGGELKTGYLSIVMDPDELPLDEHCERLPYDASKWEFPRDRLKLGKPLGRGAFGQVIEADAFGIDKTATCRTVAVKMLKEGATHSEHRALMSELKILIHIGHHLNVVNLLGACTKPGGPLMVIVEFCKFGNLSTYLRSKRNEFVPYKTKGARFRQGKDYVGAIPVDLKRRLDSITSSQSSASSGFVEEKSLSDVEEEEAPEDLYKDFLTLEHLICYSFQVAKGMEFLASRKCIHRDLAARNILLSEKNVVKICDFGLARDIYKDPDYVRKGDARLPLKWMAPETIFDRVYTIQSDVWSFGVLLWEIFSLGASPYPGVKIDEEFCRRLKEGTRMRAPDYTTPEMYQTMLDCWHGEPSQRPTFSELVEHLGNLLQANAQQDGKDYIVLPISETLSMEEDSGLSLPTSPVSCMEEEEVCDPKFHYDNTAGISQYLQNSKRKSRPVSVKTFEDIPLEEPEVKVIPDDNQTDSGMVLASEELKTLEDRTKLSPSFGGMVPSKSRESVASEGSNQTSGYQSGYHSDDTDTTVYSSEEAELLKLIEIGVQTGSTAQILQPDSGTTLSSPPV

[2] = molecular target: T1, human KDR (VEGFR2) on cells; experiment: cell-based or functional assay; remark: listed apart in the source
[3] = molecular target: T1, human KDR (VEGFR2) on cells; experiment: cell-based or functional assay; remark: listed apart in the source
[4] = molecular target: T1, human KDR (VEGFR2) on cells; experiment: FACS on HUVEC, hybridoma supernatant 1:50
Method: HUVECs were seeded at 15,000 cells/well and incubated with 100 μL of sample supernatant (at 1:50 dilution) for one hour at 4° C. The positive control was goat anti-KDR antibody (R&D Systems, Inc.), and negative controls included irrelevant hybridoma supernatants at the same dilution. The cells were then washed and incubated with Cy5-conjugated goat anti-human antibody at 5 μg/mL and 7-Amino-Actinomycin D (7AAD) at 5 μg/mL for 15 minutes at 4° C. Bound KDR was detected using FACS analysis.

[5] = molecular target: T2, mouse KDR (Flk-1)/Fc (Cat. #443-KD/CF, R&D Systems) (mouse, UniProt P35918 20-762); experiment: ELISA, plate-coated Flk-1/Fc 500 ng/mL, hybridoma supernatant 1:5
T2 construct: Bought reagent; also called mouse VEGFR2; KDR mouse ortholog; Fc part of the bought chimera not given
T2 sequence (P35918 20-762): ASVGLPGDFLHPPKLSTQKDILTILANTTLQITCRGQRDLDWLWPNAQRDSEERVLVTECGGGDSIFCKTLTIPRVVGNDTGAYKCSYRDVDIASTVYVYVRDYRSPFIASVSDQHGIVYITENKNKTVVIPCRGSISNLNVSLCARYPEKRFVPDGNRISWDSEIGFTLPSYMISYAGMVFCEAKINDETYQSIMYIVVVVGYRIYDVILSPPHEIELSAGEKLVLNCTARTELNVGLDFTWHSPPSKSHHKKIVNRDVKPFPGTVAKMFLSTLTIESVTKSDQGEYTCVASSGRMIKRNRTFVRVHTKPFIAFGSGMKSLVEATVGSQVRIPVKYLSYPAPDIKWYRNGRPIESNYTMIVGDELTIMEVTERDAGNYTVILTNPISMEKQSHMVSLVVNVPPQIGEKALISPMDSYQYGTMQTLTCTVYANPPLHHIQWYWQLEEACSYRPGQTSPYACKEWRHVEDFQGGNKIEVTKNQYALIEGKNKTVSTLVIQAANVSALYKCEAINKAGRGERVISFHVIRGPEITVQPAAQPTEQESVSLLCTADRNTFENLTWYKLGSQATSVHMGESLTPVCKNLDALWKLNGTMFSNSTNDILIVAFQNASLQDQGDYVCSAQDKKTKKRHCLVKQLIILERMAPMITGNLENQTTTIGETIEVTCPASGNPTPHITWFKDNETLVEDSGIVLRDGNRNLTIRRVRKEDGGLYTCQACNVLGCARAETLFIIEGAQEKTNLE
Method: The cross-reactivity of antibodies in the hybridoma supernatant was tested against KDR mouse ortholog (mouse VEGFR2, or Flk-1) and human VEGFR1 (Flt-1). Cross-reactivity was measured using an ELISA based assay.
After washing and blocking the plates, the antibody-containing supernatants were added (at 1:5 dilution) into the coated wells and incubated for one hour at room temperature. The plates were then incubated with mouse anti-human IgG 2, 3 and 4 and subsequently with goat anti-mouse IgG Fc POD, to detect and measure bound antibodies.

[6] = molecular target: T3, soluble KDR (VEGF Receptor 2 D1-7, Cat. #676490, Calbiochem) (human, UniProt P35968 20-764); experiment: ELISA, plate-coated soluble KDR 250 ng/mL, hybridoma supernatant 1:5
T3 construct: extracellular domain; Bought reagent; also called soluble human KDR; immobilized soluble KDR
T3 sequence (P35968 20-764): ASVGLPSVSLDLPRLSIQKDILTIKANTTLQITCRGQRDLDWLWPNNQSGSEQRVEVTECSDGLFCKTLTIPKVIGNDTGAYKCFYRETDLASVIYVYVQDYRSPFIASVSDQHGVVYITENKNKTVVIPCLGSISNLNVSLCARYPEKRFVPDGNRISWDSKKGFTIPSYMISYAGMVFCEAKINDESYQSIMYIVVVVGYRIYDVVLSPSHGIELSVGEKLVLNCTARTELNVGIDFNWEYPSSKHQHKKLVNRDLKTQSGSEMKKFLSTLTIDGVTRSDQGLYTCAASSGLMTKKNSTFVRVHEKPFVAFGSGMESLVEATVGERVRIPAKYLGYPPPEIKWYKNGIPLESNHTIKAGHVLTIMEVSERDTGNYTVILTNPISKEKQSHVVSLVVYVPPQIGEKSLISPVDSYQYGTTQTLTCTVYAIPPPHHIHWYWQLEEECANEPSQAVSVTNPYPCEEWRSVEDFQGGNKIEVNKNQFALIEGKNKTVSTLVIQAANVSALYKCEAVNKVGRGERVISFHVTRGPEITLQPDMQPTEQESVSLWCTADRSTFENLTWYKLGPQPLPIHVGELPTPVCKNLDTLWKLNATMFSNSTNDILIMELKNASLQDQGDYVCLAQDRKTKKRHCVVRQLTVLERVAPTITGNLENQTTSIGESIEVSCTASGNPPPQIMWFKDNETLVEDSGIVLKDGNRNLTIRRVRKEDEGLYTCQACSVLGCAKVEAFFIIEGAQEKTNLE
Method: To screen by binding to immobilized soluble KDR, plates were coated with KDR (Calbiochem) at 250 ng/mL overnight at 4° C. After blocking and washing the coated plates, the candidate hybridoma supernatants (at 1:5 dilution) were transferred to the plates and incubated for one hour at room temperature. The plates were then washed and incubated with secondary antibody (at 1:4000 dilution) for one hour at room temperature.

b-KDRIg4-7-myc-his = molecular target: T4, b-KDRIg4-7-myc-his (UniProt P35968 328-764, prefix 'b-' not explained; captured on neutravidin-coated plates (presumably biotinylated, site not stated)); experiment: ELISA, b-KDRIg4-7-myc-his 1 ug/mL on neutravidin, hybridoma supernatant 1:5
T4 construct: domain: Ig4-7; The text calls it 'a KDR antibody containing the Ig4-7 domain'; it is read as the KDR fragment; Purified on a nickel column; also called Ig4-7 domain of KDR; soluble KDR Ig4-7; not shown: myc-his tag of the pSecTag vector
T4 sequence (P35968 328-764): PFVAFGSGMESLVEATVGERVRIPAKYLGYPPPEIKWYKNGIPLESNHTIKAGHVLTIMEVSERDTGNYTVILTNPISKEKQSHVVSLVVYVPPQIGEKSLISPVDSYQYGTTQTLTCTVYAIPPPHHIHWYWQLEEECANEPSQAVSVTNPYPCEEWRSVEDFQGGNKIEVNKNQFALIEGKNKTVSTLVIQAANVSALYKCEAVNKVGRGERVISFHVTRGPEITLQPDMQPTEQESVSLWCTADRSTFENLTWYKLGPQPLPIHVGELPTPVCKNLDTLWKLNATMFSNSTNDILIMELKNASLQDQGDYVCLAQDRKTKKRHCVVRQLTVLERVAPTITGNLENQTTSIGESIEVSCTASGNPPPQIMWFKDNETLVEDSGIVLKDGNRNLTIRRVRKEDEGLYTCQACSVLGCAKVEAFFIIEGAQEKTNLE
Method: To screen by binding to the Ig4-7 domain of KDR, plates were first coated with neutravadin (Pierce) at 4 μg/mL and incubated overnight at 4° C. The plates were then blocked and subsequently incubated with b-KDRIg4-7-myc-his at 1 μg/mL for one hour at room temperature. Candidate hybridoma supernatants (at 1:5 dilution) were transferred to the plates and incubated for one hour at room temperature. The plates were then washed and incubated with goat anti-human IgG Fc POD (at 1:4000 dilution) for one hour at room temperature.

| Binder | % Inhibition of VEGF165-mediated pTyr Activity, Average [1] [%] | % Inhibition of VEGF165-mediated pTyr Activity, n = 1 [1] [%] | % Inhibition of VEGF165-mediated pTyr Activity, n = 2 [1] [%] | % Inhibition of VEGF165-mediated pTyr Activity, n = 3 [1] [%] | % Inhibition of VEGF-E-mediated pTyr Activity [2] [%] | HUVEC survival (n = 1) 1:10 dilution of supernatant (RLU) [3] [RLU] | HUVEC survival (n = 2) 1:20 dilution of supernatant (RLU) [3] [RLU] | FACS Geometric Mean [4] | OD (450 nm) [5] [OD450] | KDR OD(450 nm) [6] [OD450] | b-KDRIg4-7 OD(450 nm) (b-KDRIg4-7-myc-his) [OD450] |
| --- | --- | --- | --- | --- | --- | --- | --- | --- | --- | --- | --- |
| B1 | 76 | 89 | 72 | 66 | 18 | 32700 | 544 | 27 | 0.096 | 0.83 | 0.071 |
| B2 | 71 | 87 | 75 | 50 | 66 | 6540 | 4710 | 20 | 0.076 | 1.15 | 3.66 |
| B3 | 73 | 88 | 78 | 52 | 46 | 25700 | 2310 | 14 | 0.097 | 4.55 | 0.62 |
| B4 | 67 | 82 | 65 | 53 | 61 | 12900 | 3260 | 24 | 0.074 | 1.18 | 2.81 |
| B5 | 65 | 86 | 59 | 52 | 50 | 14400 | 9730 | 25 | 0.107 | 0.786 | 1.21 |
| B6 | 44 | 73 | 47 | 11 | 57 | 24900 | 11900 | 28 | 0.092 | 1.07 | 0.068 |
| B7 | 54 | 76 | 56 | 31 | 54 | 19400 | 12500 | 25 | 0.108 | 1.11 | 0.058 |
